Consider eight molecules from PMC4826287 (Journal of molecular biology, 2015).

Sequences and labels used below:
T1: Gli3^1-90 (90-residue N-terminal Gli3 fragment), His tag cleaved (UniProt P10071 1-90)
T1 sequence (looked up): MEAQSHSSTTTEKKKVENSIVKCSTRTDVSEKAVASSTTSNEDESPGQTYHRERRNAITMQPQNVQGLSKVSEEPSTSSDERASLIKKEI

B1: SBM1 (Gli3 peptide, SPOP-binding motif 1) (peptide)
peptide: Ac-MEAQSHSSTTTEKK-NH2
B2: His6-Gli3^1-90 (N-terminal His6 tag left on) (domain or fragment, UniProt P10071 1-90, looked up)
chain: T1 sequence (looked up)
B3: Gli3^1-90: 90-residue N-terminal Gli3 fragment, recombinant, intrinsically disordered (protein)
chain: T1 sequence (looked up)
modifications: left off: His6, N-terminal, cleaved
B4: F-pPuc (N-terminally fluorescently labeled Puc peptide) (peptide)
peptide: ENLACDEVTSTTSSST
modifications: not fully specified; fluorescein on the N-terminus; C-terminal amide
B5: pPuc (peptide derived from the Drosophila melanogaster protein Puckered, residues 91-106) (peptide)
peptide: Ac-ENLACDEVTSTTSSST-NH2
B6: SBM3 (Gli3 peptide, SPOP-binding motif 3) (peptide)
peptide: Ac-KVSEEPSTSSDERA-NH2
B7: SPOP^MATH (MATH domain of Speckle-type POZ protein, residues 28-166) (domain or fragment, UniProt O43791 28-166, looked up)
chain: KVVKFSYMWTINNFSFCREEMGEVIKSSTFSSGANDKLKWCLRVNPKGLDEESKDYLSLYLLLVSCPKSEVRAKFKFSILNAKGEETKAMESQRAYRFVQGKDWGFKKFIRRDFLLDEANGLLPDDKLTLFCEVSVVQD
B8: SBM2 (Gli3 peptide, SPOP-binding motif 2) (peptide)
peptide: Ac-EKAVASSTTSNEDES-NH2

Test [1] concerns the target B7. In words: fluorescence polarisation. (In fluorescence polarisation assays a small probe gives low polarisation when free and higher when bound to something large.)
The target of test [2] is B7. Nature of the test: BLI. (In general: BLI is a label-free optical method that tracks binding on a fibre tip over time.)
In test [3] the target is T2, SPOP^MATH-BTB (SPOP construct encompassing residues 28-337) (UniProt O43791 28-337). Nature of the test: BLI.
Test [4] addresses SPOP^MATH-BTB-BACK (SPOP construct encompassing residues 28-359) (UniProt O43791 28-359). Nature of the test: BLI.
Another test deals with SPOP^MATH (Homo sapiens, UniProt O43791). In words: Sedimentation velocity AUC, stoichiometry of Gli3^1-90/SPOP^MATH complex. It counts as binding. Conditions: SV AUC, excess SPOP^MATH (Gli3^1-90 156 μM / SPOP^MATH 525 μM), pH 6.0, 20 °C, size-and-shape distribution analysis.
Test [5] addresses B7. Nature of the test: fluorescence polarisation. This is another data set of the same source.
The target of test [6] is T2, SPOP^MATH-BTB (SPOP construct …). In words: fluorescence polarisation.
Test [7] has as its target T1, Gli3^1-90 (90-residue N-terminal Gli3 …). In words: AUC.

What is called Kd is the concentration at which binding is half-saturated. Low readings indicate higher affinity, high ones lower affinity. Consider B1, for which the dissociation constant (Kd) in test [1] is roughly 4100 µM.

B2: the dissociation constant Kd amounted to 21 µM in test [2], 28 µM in test [3] and 1.5 µM in test [4]. Regarding B3, in the test with SPOP^MATH, the “number of MATH domain molecules bound to 1 Gli3^1-90 molecule” value was “up to 3”. B4: the equilibrium dissociation constant (Kd) in test [5] and in test [6] was roughly 6 µM in each case. B5 came in with a dissociation constant Kd in test [1] of 7.7 µM. In other words, the single-digit micromolar range. Still for that read-out and setting: next, B6: 560 µM.

Broadly, the stoichiometry N is a count of units in the complex or per binding partner. In the case of B7, in test [7], the “stoichiometry N” value is no more than 3 SPOP^MATH per Gli3^1-90. B8: the Kd in test [1] came to 80 µM.
